B1: G001_gp1_V10_VRC01c_2021-0087 (antibody, V domains shown)
VH: QVQLVQSGAEVKKPGASVKVSCKASGYTFTGNYIHWVRQAPGQGLEWVGWLNPNSGGTNYAQQFQGRVTMTRDTSISTAYMELNRLRSDDTAVFYCARGLWQWEFRYWGQGTLVTVSS
VL: DIVLTQSPGTLSLSPGERATLSCRASQSVSSSNLAWYQQKPGQAPRLLIYGASSRATGIPDRFSGSGSGTDFTLTISRLEPEDCAVYYCQQYEGFGGGTKVEIK
notes: also called G001-0087
B2: G001_LD_07A_VRC01c_58 (antibody, V domains shown)
VH: QVQLVQSGAEVRKPGASVKVSCKASGYTFTDYYIHWVRQAPGQGLEWMGWINPNSGGTNYAQKFQGWVTMTRDTSISTAHMELRRLRSDDRAVYYCARGVVHSGFEFGYWGQGTLVTVSS
VL: DIQMTQSPSTLSASVGDRVTITCRASQSISNWLAWYQQKPGKAPKLLIYKASSLESGVPSRFSGSGSGTEFTLTISSLQPDDFATYYCQQYETFGQGTKVEIK
notes: also called G001-58
B3: G001_LD_07A_VRC01c_59 (antibody, V domains shown)
VH: QVQLVQSGAEVKKPGTSVKVSCKASEYTFTGYYVHWVRQAPGQGLEWMGWINPNSGGTNYAQKFQGWVTMTRDTSISTAYMELSRLKSDDTAVYYCARSDYISSWYFGYWGQGTLVTVSS
VL: EIVMTQSPATLSVSPGERATLSCRASQSVSSNLAWYQQKPGQAPRLLIYGTSTRATGIPARFSGSGSGTEFTLTISSLQSEDFAVYYCQQYETFGQGTKVEIK
notes: also called G001-59
B4: G001_gp1_V10_VRC01c_179 (antibody, V domains shown)
VH: QVQLVQSGADVKKPGASVKVSCKASGYTFTDYYMHWVRQAPGQGLEWMGWINPNSGGTNYAQKFQDRVTMTRDTSVSTAYMEVSGLRSDDTAVYYCARIKLCNGGSCNWSLGYWGQGSLVTVSS
VL: DIQMTQSPSSLSASVGDRVTITCQASQDISNYLNWYQQKPGKAPKLLIYGASNLETGVPSRFSGSGSGTDFTFTISSLQPEDIATYYCQQYEFFGPGTKVDIK
notes: also called G001-179

The target of the test is T1, eOD-GT8 (Human immunodeficiency virus 1, …).
T1 construct: also called engineered outer domain germline-targeting version 8; eOD-GT8 monomer
In words: SPR; monoclonal IgGs and eOD-GT8; as previously described (ref. 19). The following applies: both partners purified. For orientation: SPR reads the build-up and loss of mass on a sensor chip optically.
By Kd is commonly meant the concentration at which binding is half-saturated. With B1, the dissociation constant Kd was 150 pM.

Turning to B2, the Kd is 437 pM.

The molecule B3 registered a Kd of 1760 pM.

B4 had a Kd of 130 pM.

For the origin of these results see paper doi:10.1101/2025.05.22.655646 (bioRxiv, 2025).
